Source: patent publication CN113087789A

What was measured:
[1] = molecular target: M13KO7辅助噬菌体 (丝状噬菌体pVIII蛋白) (M13KO7 helper phage (filamentous phage)) (UniProt P69541); experiment: indirect ELISA, plate coated with 1.0×10^9 pfu/mL M13KO7 helper phage, purified antibody (1.0 mg/mL stock)
[2] = molecular target: M13KO7辅助噬菌体 (丝状噬菌体pVIII蛋白) (M13KO7 helper phage (filamentous phage)) (UniProt P69541); experiment: indirect ELISA, plate coated with 1.0×10^9 pfu/mL M13KO7 helper phage, ascites antibody

Sequence of UniProt P69541 (P69541 24-73): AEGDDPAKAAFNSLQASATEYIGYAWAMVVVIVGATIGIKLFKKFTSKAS

B1: 丝状噬菌体pVIII蛋白单克隆抗体P8E4 (antibody, V domains shown)
VH: QIQLQQSGAELARPGASVRLSCKRSGYTFTTYWLQWLKQRAGQGLEWIGAIYPGNGDTRYFPNFKGQATLTADRSSSTRYLQLSSLASESSAVYYCASLLRTDFAMDYRGQGTSVTVSS
VL: DIVLTQSPASEAVSLGQRATISCRTSESVDTYAISFIHWYQQKPGWPPKLLIYRASNAESGIPARFAGSGSRPDFTLSIRPVEADDVATYYCQQSDKDPGSFGGGTKLEIK
效价 (titer, purified antibody 1.0 mg/mL) (fold dilution) [1]: 6400
效价 (titer, ascites) (fold dilution) [2]: 102000
